Ends that are not written are not given here.
Target: recombinant Drp1 (GST-Drp1) (human, UniProt O00429 1-736)
Assay: cell-based or functional assay

Sequence of recombinant Drp1 (GST-Drp1) (O00429 other isoform, or with tags, fused parts or gaps): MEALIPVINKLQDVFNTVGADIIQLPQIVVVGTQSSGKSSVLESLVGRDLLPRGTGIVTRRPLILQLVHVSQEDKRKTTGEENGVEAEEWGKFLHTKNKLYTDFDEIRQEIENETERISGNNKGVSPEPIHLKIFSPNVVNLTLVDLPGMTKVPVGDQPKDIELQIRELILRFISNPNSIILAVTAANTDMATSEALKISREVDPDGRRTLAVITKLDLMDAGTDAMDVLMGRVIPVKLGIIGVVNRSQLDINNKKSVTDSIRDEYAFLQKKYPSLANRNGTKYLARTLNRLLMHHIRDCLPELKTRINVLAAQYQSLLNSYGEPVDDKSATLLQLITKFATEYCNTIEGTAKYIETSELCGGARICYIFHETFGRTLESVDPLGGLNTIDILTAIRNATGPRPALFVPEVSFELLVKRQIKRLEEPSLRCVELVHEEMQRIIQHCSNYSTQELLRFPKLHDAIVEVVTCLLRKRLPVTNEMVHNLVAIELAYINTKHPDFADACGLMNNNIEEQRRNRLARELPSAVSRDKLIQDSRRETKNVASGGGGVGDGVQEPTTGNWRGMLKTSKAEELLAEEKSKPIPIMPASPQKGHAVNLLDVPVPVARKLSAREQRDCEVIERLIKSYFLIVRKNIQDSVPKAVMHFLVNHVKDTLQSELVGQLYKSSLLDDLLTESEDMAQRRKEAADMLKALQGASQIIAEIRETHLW

B1: P109 (peptide)
peptide: RRRQRRKKRGYGGKLSAREQRD-NH2
  GTPase activity of recombinant Drp1 (in vitro GTPase assay kit): 40 % inhibition

Reference: patent publication US20170312332A1 (Stanford University, published 2017)
